# Reference: FireProtDB (doi:10.1021/bi00358a035)
# Values joined by “and” are separate entries in the source; they are usually repeats but may differ in a detail not shown here. Equal entries are not always repeated.
# Conditions: Escherichia coli (strain K12); pH 7.8; 25 °C; Urea; CD; Potassium phosphate 10 mM; transition: 3; reversible: yes (>90%); whole UniProt chain shown
protein,measurement,value
"Tryptophan synthase alpha chain wild type, P0A877 (protein) MERYESLFAQLKERKEGAFVPFVTLGDPGIEQSLKIIDTLIEAGADALELGIPFSDPLADGPTIQNATLRAFAAGVTPAQCFEMLALIRQKHPTIPIGLLMYANLVFNKGIDEFYAQCEKVGVDSVLVADVPVEESAPFRQAALRHNVAPIFICPPNADDDLLRQIASYGRGYTYLLSRAGVTGAENRAALPLNHLVAKLKEYNAAPPLQGFGISAPDQVKAAIDAGAAGAISGSAIVKIIEQHINEPEKMLAALKVFVQPMKAATRS",denaturant m value,2.2 kcal/mol/M and 1.2 kcal/mol/M
same,denaturant midpoint (higher = more stable),2.62 M and 4.18 M
same,unfolding free energy,5.7 kcal/mol and 5 kcal/mol
